Test results published in paper PMC2988976.

Target: Rev_(70-Dimer) (HIV) (UniProt P04618)
Test: SEC-MALS

How did the stoichiometry N turn out when “Rev_(70-Dimer) (from UniProt P04618 1-70) (domain or fragment)” was run?
Its stoichiometry N is 2.
